This note sets out measurements from a protein production outcome set (Wang et al. 2014).

A short description of the data set: label from the status in PepcDB records.
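Note: failed if final PepcDB status was selected cloned or expressed and not failed if soluble or beyond.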

As to “MKGGTIQISWHDGKPVLTVDFHPISGLLATAGADYDIKLWLINSGQAEKKVPSVSYQSSLTYHGCAVNTIRFSPSGELLASGADGGELFIWKLHPSETNQSWKVHKSLSFHRKDVLDLQWSPDDAYLISGSVDNSCIIWDVNKGSVHQILDAHCHYVQGVAWDPLAKYVASLSSDRTCRIYANKPQTKSKGVEKMNYVCQHVIMKADQQRGDETKTIKTHLFHDETLPSFFRRLSWSPDGSFLLIPAGSFKVSPTSEAVNATYVFSRKDLSRPALQLPGASKPVVVVRFCPVAFKLRGSSSEEGFFKLPYRLVFAIATLNSVYIYDTECVAPIAVLAGLHYAAITDITWSPNASYLALSSQDGYCTLVEFEDKELGEAVSISGLLLVLSLLNLPEPD”, the protein production entry is given as “failed”.

For the sequence “MKGLERESHFTLNENAMFFECAYSCDNALFLQLDDRSFFITDSRYTQEAKESVQPKNGVLAEVVESSDLVQSAIDLIVKSSVKKLFFDPNQVNLQTYKRLNSALGDKVALEGVPSYHRQKRIIKNEHEIQLLKKSQALNVEAFENFAEYVKKIFDEKESLSERYLQHKVKDFLTREGVYDLSFEPILALNANASKPHALPSAKDFLKAEHSILLDMGIKYERYCSDRTRTAFFDPKDFVFKREQSFKDKERQKIYDIVKEAQEKAISGIRAGMTGKEADSLARGVISDYGYGQYFTHSTGHGIGLDIHELPYISSRSETILEEGMVFSVEPGIYIPGFFGVRIEDLVVIKNSRSELL”, the protein production entry is listed as “failed”.

As to “MKGLFKNKSRLPGEIVRQTRDLIALAESEEEETDARNSKRLGICAELCRNIRDLKSILYGNGEAEPVPEACLLLTQEFFRADTLRPLIKSIPKLDLEARKDATQIVANLQKQQVEFRLVASEYLESNLDVIDSLVEGIDHDHELALHYTGMLKECVRHQVVAKYILESKNLEKFFDYVQLPYFDVATDASKIFRELLTRHKSTVAEYLAKNYEWFFAEYNTKLLEKGSYFTKRQASKLLGDVLMDRSNSGVMVKYVSSLDNLRIMMNLLREPTKNIQLEAFHIFKLFVANENKPEDIVAILVANRTKILRLFADLKPEKEDVGFETDKALVMNEIATLSLLDIKTADR”, the protein production entry is recorded as “failed”.

With “MKGLLPLAWFLACSVPAVQGGLLDLKSMIEKVTGKNALTNYGFYGCYCGWGGRGTPKDGTDWCCWAHDHCYGRLEEKGCNIRTQSYKYRFAWGVVTCEPGPFCHVNLCACDRKLVYCLKRNLRSYNPQYQYFPNILCS”, the protein production entry is recorded as “failed”.

On to “MKGMKYHDYIWDLGGTLLDNYETSTAAFVETLALYGITQDHDSVYQALKVSTPFAIETFAPNLENFLEKYKENEARELEHPILFEGVSDLLEDISNQGGRHFLVSHRNDQVLEILEKTSIAAYFTEVVTSSSGFKRKPNPESMLYLREKYQISSGLVIGDRPIDIEAGQAAGLDTHLFTSIVNLRQVLDI”, for which the protein production result is “not failed”.

As to “MKHEWRKFEKELYGVKAKPIFLEVEEQRFITIKGKGNPNDQDFSNRVSALYALAYGIKMAYKQAMKTEQDDRAVTDFAVYPLEGLWQQAKDAKEDTLEKDKLSYTIMIRQPEFITKELVDQALDRVKIKKPNSFYESISFESIKDGKCIQVLHIGSYDDEPQSFAKMDAFAKEHGLKRSSDIHREIYLSNAQRTEKSKLKTILRYQVEEK”, the protein production entry is on record as “failed”.

On to “MKHMEKFANHFGYNRMFAKDQLTLGVHIPIENYQFHAPTMEKQVELVQKAEQYGFTGVWLRDVLLQDPDFGDPATGQIYDMMIYLTYLASKTEKIAFGTSATVLSLRHPLRVAKEIATLDQLFPERIMLGVSSGDRRADFKALGVSHETRGEKFREAFAYLEEILYKNFPSIQSTLGEVHGANLVPKPSKRVPTFITGFSQQNMEWFAEHGDGWMYYPRSPVHQAGAIGQWRELVEDYHPDVFKPFIQPMHLDLSEDPNERPTPIRLGYRTGRKALIELLDIYKSIGVNHLFLALFDGQRPADEVLDELGEEVLPHFPAL”, for which the protein production entry is given as “not failed”.

For “MKHPLQDMFTSAIEAVARDSGWAELSAVGSYLAKNDPSFDPRNWGHGRLSQMVKKLDFLTVQESRNGSKLHSEIRLRHDGLEHHHHHH”, the protein production entry is reported as “not failed”.

For the sequence “MKHYFSCLKGDTIKAIFLVCLAVGVVGMSYGSLAMAYGFPLWVPFVLSIFVLAGASEFMFIGIVASGGNPLAAAAAGLLVNARHVPFGVTVRDLVGTRAASFFGCHIMNDESVVFGLSQKTPEQRKAAYWLCGLGVALFWPIGTLIGAGVGKLLPAPETIGLDAVFPAILLALVIPAFKNRTTLIRGCSGAALSLAAVPFVAAGLPVLLSLLGLLARKK”, the protein production entry is “failed”.

“MKIALIGASGYVGSALLKEALSRGHHVTALVSRPERIAAQANLAAAKVDVQDSAQLAEQLKGFDAVLSAFSGHAQAEQFDYFVKGIRSIIAAAKAAQAPRLLVVGGAGSLEVAPGVQLVDTPEFPEQWKASALGAREALNLLRAETELNWTLLSPSAMLQPGQRTGQFRLGKDQLLVDAEGNSHISVEDYAVAMIDELEKGEHQRSRFTVGYLEHHHHHH”: the protein production entry is reported as “not failed”.

Take “MKIATYNVRVDTEYDQDWQWSFRKEAVCQLINFHDWSLCCIQEVRPNQVRDLKAYTTFTCLSAEREGDGQGEGLAILYNEQKVQAIDTGYFWLSETPQQPSIHPEAGCPRIALWGLFKETTQNTPFLVINVHLDHISAHARLAGMTVILEELHDKIAQYPTLLMGDFNAESGEEVHQLVQKKFQDSKNLATHYGPRGTFQNFTYTKPWAELEEIDYIYVKGWQVQQTASLTDSIDGRFPSDHFPLEAEV”: the protein production result is “not failed”.

As to “MKIAVLGATGRAGSAIVAEARRRGHEVLAVVRDPQKAADRLGATVATLVKEPLVLTEADLDSVDAVVDALSVPWGSGRGYLHLDFATHLVSLLRNSDTLAVFILGSASLAMPGADHPMILDFPESAASQPWYDGALYQYYEYQFLQMNANVNWIGISPSEAFPSGPATSYVAGKDTLLVGEDGQSHITTGNMALAILDQLEHPTAIRDRIVVRDADLEHHHHHH”, the protein production result is listed as “not failed”.

“MKIDILDKGFVELVDVMGNDLSAVRAARVSFDMGLKDEERDRHLIEYLMKHGHETPFEHIVFTFHVKAPIFVARQWFRHRIASYNELSGRYSKLSYEFYIPSPERLEGYKTTIPPERVTEKISEIVDKAYRTYLELIESGVPREVARIVLPLNLYTRFFWTVNARSLMNFLNLRADSHAQWEIQQYALAIARIFKEKCPWTFEAFLKYAYKGDILKEVQV”: the protein production result is “not failed”.

Turning to “MKIDLIISADDIKEEKVKNKTAVVIDMLRATSVITTALNNGCKRVVPVLTVEEALKKVKEYGKDAILGGERKGLKIEGFDFSNSPMEYTEDVVKGKTLIMTTTNGTRAIKGSETARDILIGSVLNGEAVAEKIVELNNDVVIVNAGTYGEFSIDDFICSGYIINCVMDRMKKLELTDAATTAQYVYKTNEDIKGFVKYAKHYKRIMELGLKKDFEYCCKKDIVKLVPQYTNGEIL”, the protein production result is “not failed”.

Regarding “MKIGIMSDTHDHLPNIRKAIEIFNDENVETVIHCGDFVSLFVIKEFENLNANIIATYGNNDGERCKLKEWLKDINEENIIDDFISVEIDDLKFFITHGHHQSVLEMAIKSGLYDVVIYGHTHERVFEEVDDVLVINPGECCGYLTGIPTIGILDTEKKEYREIVLE”, the protein production entry is given as “not failed”.

As to “MKIGVIQASTRTDLNQLLFEAVKQAAGNQHEIVNFGVFPQETENYSYVEVAIMISLLIETGAIDFMVSGCSSGQGMMMACNSLPGLQAGFIQTPQDAFLFGRINNGNVASLSLGLNFGWAGELNLQYALNELFHGEFGIGYPPEVAERKREEAQLLLTLNDITKKSFLEIIDQLDKALLFKILKRKDLTAYLFDYGSNSLLLERLQFFRN”, the protein production entry is recorded as “failed”.

Consider “MKIIAFYLPQFHQIKENDRWWGKGFTEWTNTKSAQPLFSGHYQPREPYQDFYYDLTTPSVRKWQAEIAKAYGIYGFCYYHYWFKGKRLLETPFNEVLKMKEPDFPFCLSWANEPWTKSWDGLDKHILMPQDYGDISDWKEHFDYLLQAFQDERYIYIDDKPLFIIYRPGHIPDCEKMLNYWNALARANGLKGIYFAETLNSFPLPNINGFDASIQFEPFYTIAHDSSSDINKVIYDSDMQLNVWDYDKVWMYILQRSLPKKKTFPGAFVDWDNTARRKNANSSIFVGSTPEKFTIYLSKQIHRTYSFYNSEFLFINAWNEWAEGTYLEPDKKYGFSYLEGVKNAIDRGMKAYKKDESFLEHHHHHH”, for which the protein production result is “not failed”.

Turning to “MKIIGIIQARTGSKRLKNKVLLKLGDRCILEILLERLKKSKKLDDIIVATTIKKEDNAIVELCNSLGVNVFRGSEKDVLDRFYNASKFYSGDVIVRITGDNPLTSIELIDKQVEYLLKNNFDYVSTKNIILGLSSEVFTFDALEKAWKNAKEKYQREHVTPYIYENPNLFKVFYLEPPEYLKREGIRLTIDTIKDFKLYLELQKHFDLINVDIRQIIDFLDKNPQIKNINSNVRQKSYREVEE”, the protein production entry is “failed”.

In the case of “MKIILANPRGFCAGVDRAISIVELALEIHGAPIYVRHEVVHNRFVVNGLRERGAIFVEELSEVPDGAIVIFSAHGVSQAVRQEAKDRNLKVFDATCPLVTKVHMQVARASRKGTKAILIGHKGHPEVEGTMGQYSNEDGGIFLIEKVEDIARLPMQENDNLTFMTQTTLSLDDTAETIAALKEKYPAIQGPHKNDICYATTNRQEAVRELAKLSDLVLVVGSKNSSNSNRLAELASRMGVKSQLLDEPADIQADWFNDVKTIGITAGASAPEELGQSIISRLKRFGAN”, the protein production entry was “failed”.

“MKIIVVGCGKIGYTIAKVLSEKKDIDVTVVDNNPNIFDKMVEPIDVIFISGNGANEKTLIEAGAKDADLIVSTTNADELNVLCCIMAERLGTKHSIARVRNPEYMLEFNKLWKDLGIDMVINPERQTAREISRILRYHAADDIVTFIGDRVELVSFKVSETPEYFVGKSVSQIFDNNMGILLAIVERENQALIPNGDLIFKESDIIWIMGRPSQIMKFFTLIKKGPKKGQEIMVIGGGKITHYLVELLNRHTTKANIKIIKKDRSKCESLYEALSSASLERRCLFIHGDGTNEELLIDEGIDTMDACVCLTDRDEENVFISLYAMRRGVKKVITKINYIHQNMAKSLGLWLGNIITPQYITAKTVIRYVDGLSGAVGRNIMTIHQIYSGDDGNVDAIEFQVNKKAKCIDTPIKKLKLKKGILIGCISRDFDIIIPSGETEIHIGDRVIIFSKNNDIRDLDDILEN”: the protein production entry is given as “failed”.

For “MKIKPPLPTVTRTHARALRKELTDAERALWRCLRSNQLHDFKFRRQHPIPPYIADFCCIDAALIIELDGSQHQASSDQARTRWLQSKGWTVLRFWNNDVLFSLDAVVETIFKMVATPYPHPNPSPGGRGA”, the protein production entry was “failed”.

In the case of “MKILSVSYIYLLMGISSYSYANFDLGINEFNAPNELTELSELNTSNDNNAIIELINSTNSQVTIIQHNVNKTGSNKAKVKQTGYDNTAAVMQLGSNNVGLIAQNGTNNLATLKQLGFNHEGAILQEGNDNIAHLVQTGNGKQNVVNQTGDSNIAAAVNKNNGAGFSINQTGNQGIILVNGMDRFISIVN”, the protein production entry was “failed”.

For the sequence “MKILVAFDGSDGAQKALGFAINFSKDCERMIVLYVSRDIISESGRLTYIPDTALERRDSEDEAILARARSILASSNIPFEIIKKNSDGVDVSKVIADTAKELECNMIITGTRKLRGLSKYLLGSVSAGIIAISNVPVIVVP”, the protein production result is given as “failed”.

For the sequence “MKILVCITHVPDTTSKITFADNKFNTAGVQFIIGPYDEYALSRAVELKEQSGGTVTVLNVGDAETEPTIRKALAIGADDAIRINAVPKDAGFVAAQIAAVAKSGGYDLILMGRESIDYNGGLVHGLVADALGMPCVTPIMKLDIENGVAKMTREIEGGKESVECALPFVAGCQEPIAEWKIPNMRGIMSARTKPLNVVEPVVVADDVVYGTFSLPAPKGACKMIDAANPEELLTLLRNEAKVL”, the protein production result was “failed”.
